Assay results taken from patent publication US20200140562A1 (Innovent, published 2020).

T1: human OX40 on cells (CHO-hOX40, 293HEK-hOX40, Jurkat-hOX40, activated primary CD4+ T cells) (human, UniProt P43489 29-277)
T1 construct: whole, on cells; The cell type is told in each assay; also called CHO-OX40
T1 sequence (looked up): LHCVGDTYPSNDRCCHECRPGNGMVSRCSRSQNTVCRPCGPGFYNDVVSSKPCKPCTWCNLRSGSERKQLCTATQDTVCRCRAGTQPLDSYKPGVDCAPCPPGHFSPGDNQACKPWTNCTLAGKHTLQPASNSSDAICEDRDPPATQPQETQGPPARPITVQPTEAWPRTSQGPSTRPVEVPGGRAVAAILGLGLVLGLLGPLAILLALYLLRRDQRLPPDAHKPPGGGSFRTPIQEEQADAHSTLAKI

T2: mouse OX40Fc (Acro Biosystems) (mouse, UniProt P47741 20-211, limits assumed)
T2 construct: Bought; not shown: Fc
T2 sequence (looked up): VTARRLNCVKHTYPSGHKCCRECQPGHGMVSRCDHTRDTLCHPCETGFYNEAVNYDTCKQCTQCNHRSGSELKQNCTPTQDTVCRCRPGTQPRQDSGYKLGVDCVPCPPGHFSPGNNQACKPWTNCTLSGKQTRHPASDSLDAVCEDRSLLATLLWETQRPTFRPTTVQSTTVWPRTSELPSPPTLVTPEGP


How the values were obtained:
[1] = biological target: T1, human OX40 on cells (CHO-hOX40, …); assay: flow cytometry, CHO-hOX40, 25 nM
[2] = biological target: T1, human OX40 on cells (CHO-hOX40, …); assay: flow cytometry, CHO-hOX40, 50 nM
[3] = biological target: T1, human OX40 on cells (CHO-hOX40, …); assay: flow cytometry, CHO-hOX40, 100 nM
[4] = biological target: T1, human OX40 on cells (CHO-hOX40, …); assay: flow cytometry, CHO-hOX40, 200 nM
[5] = biological target: T1, human OX40 on cells (CHO-hOX40, …); assay: flow cytometry, CHO-hOX40, 12.5 nM
[6] = biological target: T1, human OX40 on cells (CHO-hOX40, …); assay: flow cytometry, CHO-hOX40, 6.25 nM
Protocol: (§1) CHO-hOX40 cells (0.2×10⁶ cells) are incubated with the experimental antibody at 100 nM for 30 min in PBS 0.1% BSA on ice. Cells are then washed at least twice, and are incubated with a secondary antibody (PE-labelled, SouthernBiotech, at final concentration of 5 μg/ml) in PBS 0.1% BSA for 30 min on ice (protected from light). Cells are washed at least twice and analysed via flow cytometry. Flow cytometry is performed on a Canto II system (BD Biosciences) and MFIs are calculated accordingly.

[7] = biological target: T1, human OX40 on cells (CHO-hOX40, …); assay: flow cytometry, CHO-hOX40, 3.125 nM
Protocol: as §1

[8] = biological target: T1, human OX40 on cells (CHO-hOX40, …); assay: flow cytometry, CHO-hOX40, 1.5625 nM
Protocol: as §1

[9] = biological target: T1, human OX40 on cells (CHO-hOX40, …); assay: flow cytometry, CHO-hOX40, 0.78125 nM
Protocol: as §1

[10] = biological target: T1, human OX40 on cells (CHO-hOX40, …); assay: flow cytometry, CHO-hOX40, 0.390625 nM
Protocol: as §1

[11] = biological target: T1, human OX40 on cells (CHO-hOX40, …); assay: flow cytometry, CHO-hOX40, 0.1953125 nM
Protocol: as §1

[12] = biological target: T1, human OX40 on cells (CHO-hOX40, …); assay: flow cytometry, CHO-hOX40, 0.09765625 nM
Protocol: as §1

[13] = biological target: T1, human OX40 on cells (CHO-hOX40, …); assay: flow cytometry, CHO-hOX40, 0.024414063 nM
Protocol: as §1

[14] = biological target: T1, human OX40 on cells (CHO-hOX40, …); assay: flow cytometry, CHO-hOX40, 0.048828125 nM
Protocol: as §1

[15] = biological target: T1, human OX40 on cells (CHO-hOX40, …); assay: flow cytometry, CHO-hOX40, IgG2 made in 293HEK
Protocol: as §1

[16] = biological target: T1, human OX40 on cells (CHO-hOX40, …); assay: cell-based or functional assay
[17] = biological target: T1, human OX40 on cells (CHO-hOX40, …); assay: flow cytometry, CHO-hOX40, 100 nM; remark: listed apart in the source
Protocol: as §1

[18] = biological target: T1, human OX40 on cells (CHO-hOX40, …); assay: flow cytometry, 293HEK-hOX40, 8 nM
Protocol: (§2) The binding of an antibody of the present invention to human OX40 may be measured in a flow cytometry assay. […] Cells are then washed at least twice, and are incubated with a secondary antibody (PE-labelled, SouthernBiotech, at final concentration of 5 μg/ml) in PBS 0.1% BSA for 30 min on ice (protected from light). Cells are washed at least twice and analysed via flow cytometry. Flow cytometry is performed on an Accuri C6 system (BD Biosciences) and MFIs are calculated accordingly.

[19] = biological target: T1, human OX40 on cells (CHO-hOX40, …); assay: flow cytometry, 293HEK-hOX40, 40 nM
Protocol: as §2

[20] = biological target: T1, human OX40 on cells (CHO-hOX40, …); assay: flow cytometry, 293HEK-hOX40, 1.6 nM
Protocol: as §2

[21] = biological target: T1, human OX40 on cells (CHO-hOX40, …); assay: flow cytometry, 293HEK-hOX40, 200 nM
Protocol: as §2

[22] = biological target: T3, human OX40_Fc (R&D Systems) (human, UniProt P43489 29-216); assay: BLI, IgG1 on tip, hOX40-Fc 50 nM, avid
T3 construct: Bought
Protocol: (§3) Sensors with loaded antibodies were exposed to 100 nM OX40 antigens for 5 min, afterwards they were transferred to assay buffer for dissociation of 5 min for off-rate measurement. Kinetics was analysed using the 1:1 binding model.

[23] = biological target: T4, cyno OX40_Fc (Acro Biosystems) (cyno); assay: BLI, IgG1 on tip, cyno OX40-Fc 100 nM, avid
T4 construct: Bought
Protocol: as §3

[24] = biological target: T2, mouse OX40Fc (Acro Biosystems); assay: BLI, IgG1 on tip, mouse OX40-Fc in solution
[25] = biological target: T1, human OX40 on cells (CHO-hOX40, …); assay: flow cytometry, MFI on CHO-hOX40 over wild-type CHO
[26] = biological target: T1, human OX40 on cells (CHO-hOX40, …); assay: flow cytometry, activated CD4+ T cells, donor 1, 100 nM
Protocol: (§4) Primary CD4+ T cells from healthy donors are activated with anti-CD3/CD28 DynaBeads(Invitrogen) for 48 hours and 0.2×10⁶ cells are incubated with the experimental antibody at 100 nM for 30 min in PBS 0.1% BSA on ice. Cells are then washed at least twice, and are incubated with a secondary antibody (PE-labelled, SouthernBiotech, at final concentration of 5 μg/ml) in PBS 0.1% BSA for 30 min on ice (protected from light). Cells are washed at least twice and analysed via flow cytometry. Flow cytometry is performed on an Accuri C6 system (BD Biosciences) and MFIs are calculated accordingly.

[27] = biological target: T1, human OX40 on cells (CHO-hOX40, …); assay: flow cytometry, activated CD4+ T cells, donor 2, 100 nM
Protocol: as §4

[28] = biological target: T1, human OX40 on cells (CHO-hOX40, …); assay: flow cytometry, CHO-hOX40, 100 nM blocker, competitor OX40L-hFc-fluorescein
Protocol: Cells are washed 3×. Flow cytometry is performed on an Accuri C6 system (BD Biosciences) and MFIs are calculated on the C6 software.

[29] = biological target: T1, human OX40 on cells (CHO-hOX40, …); assay: cell-based or functional assay; remark: listed apart in the source

Binder | MFI [1] [MFI] | MFI [2] [MFI] | MFI [3] [MFI] | MFI [4] [MFI] | MFI [5] [MFI] | MFI [6] [MFI] | MFI [7] [MFI] | MFI [8] [MFI] | MFI [9] [MFI] | MFI [10] [MFI] | MFI [11] [MFI] | MFI [12] [MFI] | MFI [13] [MFI] | MFI [14] [MFI] | EC50 [15] [nM] | other results
ADI-20065, IgG1 format (antibody, V domains shown, Made in yeast) VH: QLQLQESGPGLVKPSETLSLTCTVSGGSISSSSYYWGWIRQPPGKGLEWIGSIYYSGSTYYNPSLKSRVTISVDTSKNQFSLKLSSVTAADTAVYYCARDPGYSASPNWFDPWGQGTLVTVSS VL: not shown | – | – | – | – | – | – | – | – | – | – | – | – | – | – | – | NFkB-Luc fold change in Jurkat stimulated by PHA+ anti-CD28 [16]: 2.11 fold over IgG4 control; NFkB-Luc fold change in Jurkat stimulated by anti-CD3+ anti-CD28 [16]: 1.19 fold over IgG4 control; CHO-OX40 binding intensity (MFI) [17]: 157000 MFI; MFI [18]: 2.46e+06 MFI; MFI [19]: 2.42e+06 MFI; MFI [20]: 808000 MFI; MFI [21]: 3.03e+06 MFI; Kd [22]: 0.352 nM; Kd [23]: 5.77 nM; binding result [24]: no binding (tested: 100 nM); Fold difference [25]: 2240 fold; MFI [26]: 153000 MFI; MFI [27]: 209000 MFI; MFI of OX40L signal on CHO-OX40 cells [28]: 33700 MFI
ADI-20118, IgG2 format (antibody, Made in 293HEK cells) heavy: QVQLVQSGAEVKKPGASVKVSCKASGYTFTSYAISWVRQAPGQGLEWMGWISAYNGNTNYAQKLQGRVTMTTDTSTSTAYMELRSLRSDDTAVYYCARSGGGSGPNWFDPWGQGTLVTVSSASTKGPSVFPLAPCSRSTSESTAALGCLVKDYFPEPVTVSWNSGALTSGVHTFPAVLQSSGLYSLSSVVTVPSSNFGTQTYTCNVDHKPSNTKVDKTVERKCCVECPPCPAPPVAGPSVFLFPPKPKDTLMISRTPEVTCVVVDVSHEDPEVQFNWYVDGVEVHNAKTKPREEQFNSTFRVVSVLTVVHQDWLNGKEYKCKVSNKGLPAPIEKTISKTKGQPREPQVYTLPPSREEMTKNQVSLTCLVKGFYPSDIAVEWESNGQPENNYKTTPPMLDSDGSFFLYSKLTVDKSRWQQGNVFSCSVMHEALHNHYTQKSLSLSPG light: not shown | 1.5e+06 | 1.38e+06 | 1.53e+06 | 1.72e+06 | 1.13e+06 | 889000 | 600000 | 352000 | 207000 | 120000 | 60400 | 36800 | 16500 | 18400 | 5.84 | –

Further binders by falling EC50 [15], results first:

MFI [1] [MFI] | MFI [2] [MFI] | MFI [3] [MFI] | MFI [4] [MFI] | MFI [5] [MFI] | MFI [6] [MFI] | MFI [7] [MFI] | MFI [8] [MFI] | MFI [9] [MFI] | MFI [10] [MFI] | MFI [11] [MFI] | MFI [12] [MFI] | MFI [13] [MFI] | MFI [14] [MFI] | EC50 [15] [nM] | Binder | other results
2.33e+06 | 2.1e+06 | 2.35e+06 | 2.51e+06 | 1.62e+06 | 1.33e+06 | 913000 | 611000 | 315000 | 156000 | 80500 | 40700 | 20900 | 19400 | 5.49 | ADI-20051, IgG2 format (antibody, Made in 293HEK cells) heavy: QVQLQQWGAGLLKPSETLSLTCAVYGGSFSGYYWSWIRQPPGKGLEWIGEIDHSGSTNYNPSLKSRVTISVDTSKNQFSLKLSSVTAADTAVYYCARDGGGGYASPFDYWGQGTLVTVSSASTKGPSVFPLAPCSRSTSESTAALGCLVKDYFPEPVTVSWNSGALTSGVHTFPAVLQSSGLYSLSSVVTVPSSNFGTQTYTCNVDHKPSNTKVDKTVERKCCVECPPCPAPPVAGPSVFLFPPKPKDTLMISRTPEVTCVVVDVSHEDPEVQFNWYVDGVEVHNAKTKPREEQFNSTFRVVSVLTVVHQDWLNGKEYKCKVSNKGLPAPIEKTISKTKGQPREPQVYTLPPSREEMTKNQVSLTCLVKGFYPSDIAVEWESNGQPENNYKTTPPMLDSDGSFFLYSKLTVDKSRWQQGNVFSCSVMHEALHNHYTQKSLSLSPG light: not shown | –
1.83e+06 | 1.55e+06 | 1.78e+06 | 1.79e+06 | 1.34e+06 | 1.43e+06 | 985000 | 602000 | 314000 | 189000 | 94200 | 48500 | 24600 | 25700 | 2.78 | ADI-20112, IgG2 format (antibody, Made in 293HEK or CHO cells; also called ADI-20112-g2) heavy: QVQLVESGGGVVQPGRSLRLSCAASGFTFSSYGMHWVRQAPGKGLEWVAVISYDGSNKYYADSVKGRFTISRDNSKNTLYLQMNSLRAEDTAVYYCARGRPWYSETGTSAFDIWGQGTMVTVSSASTKGPSVFPLAPCSRSTSESTAALGCLVKDYFPEPVTVSWNSGALTSGVHTFPAVLQSSGLYSLSSVVTVPSSNFGTQTYTCNVDHKPSNTKVDKTVERKCCVECPPCPAPPVAGPSVFLFPPKPKDTLMISRTPEVTCVVVDVSHEDPEVQFNWYVDGVEVHNAKTKPREEQFNSTFRVVSVLTVVHQDWLNGKEYKCKVSNKGLPAPIEKTISKTKGQPREPQVYTLPPSREEMTKNQVSLTCLVKGFYPSDIAVEWESNGQPENNYKTTPPMLDSDGSFFLYSKLTVDKSRWQQGNVFSCSVMHEALHNHYTQKSLSLSPG light: not shown | EC50, NFkB-luciferase reporter in Jurkat-hOX40 mixed with Raji cells [29]: 0.246 nM
